Reference: IntAct's records for PubMed 35512704

B1: Speckle-type POZ protein (Homo sapiens), O43791 (parent)
chain: MSRVPSPPPPAEMSSGPVAESWCYTQIKVVKFSYMWTINNFSFCREEMGEVIKSSTFSSGANDKLKWCLRVNPKGLDEESKDYLSLYLLLVSCPKSEVRAKFKFSILNAKGEETKAMESQRAYRFVQGKDWGFKKFIRRDFLLDEANGLLPDDKLTLFCEVSVVQDSVNISGQNTMNMVKVPECRLADELGGLWENSRFTDCCLCVAGQEFQAHKAILAARSPVFSAMFEHEMEESKKNRVEINDVEPEVFKEMMCFIYTGKAPNLDKMADDLLAAADKYALERLKVMCEDALCSNLSVENAAEILILADLHSADQLKTQAVDFINYHASDVLETSGWKSMVVSHPHLVAEAYRSLASAQCPFLGPPRKRLKQS
partner: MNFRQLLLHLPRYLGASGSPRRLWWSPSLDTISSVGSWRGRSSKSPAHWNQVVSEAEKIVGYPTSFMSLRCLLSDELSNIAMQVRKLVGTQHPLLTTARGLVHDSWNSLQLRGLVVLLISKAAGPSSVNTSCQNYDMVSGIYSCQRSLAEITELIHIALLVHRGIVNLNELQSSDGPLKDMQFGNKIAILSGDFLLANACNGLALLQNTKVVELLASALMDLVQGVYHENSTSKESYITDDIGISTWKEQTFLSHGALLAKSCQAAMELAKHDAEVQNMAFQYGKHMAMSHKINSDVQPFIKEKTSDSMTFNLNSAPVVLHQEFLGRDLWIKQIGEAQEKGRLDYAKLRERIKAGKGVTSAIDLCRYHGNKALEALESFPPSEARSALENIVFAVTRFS
B2: Speckle-type POZ protein (Homo sapiens), O43791 (parent)
chain: B1 chain
partner: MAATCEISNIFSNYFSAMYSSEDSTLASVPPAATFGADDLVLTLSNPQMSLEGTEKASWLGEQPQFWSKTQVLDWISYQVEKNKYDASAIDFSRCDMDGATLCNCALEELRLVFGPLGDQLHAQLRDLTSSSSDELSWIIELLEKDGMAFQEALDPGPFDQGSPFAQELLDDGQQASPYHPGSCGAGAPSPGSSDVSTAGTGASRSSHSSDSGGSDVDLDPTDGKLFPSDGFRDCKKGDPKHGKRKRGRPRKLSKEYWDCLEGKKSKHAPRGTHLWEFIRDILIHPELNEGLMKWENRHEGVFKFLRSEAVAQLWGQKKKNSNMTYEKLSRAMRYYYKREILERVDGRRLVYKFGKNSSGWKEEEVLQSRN
B3: Speckle-type POZ protein (Homo sapiens), O43791 (parent)
chain: B1 chain
partner: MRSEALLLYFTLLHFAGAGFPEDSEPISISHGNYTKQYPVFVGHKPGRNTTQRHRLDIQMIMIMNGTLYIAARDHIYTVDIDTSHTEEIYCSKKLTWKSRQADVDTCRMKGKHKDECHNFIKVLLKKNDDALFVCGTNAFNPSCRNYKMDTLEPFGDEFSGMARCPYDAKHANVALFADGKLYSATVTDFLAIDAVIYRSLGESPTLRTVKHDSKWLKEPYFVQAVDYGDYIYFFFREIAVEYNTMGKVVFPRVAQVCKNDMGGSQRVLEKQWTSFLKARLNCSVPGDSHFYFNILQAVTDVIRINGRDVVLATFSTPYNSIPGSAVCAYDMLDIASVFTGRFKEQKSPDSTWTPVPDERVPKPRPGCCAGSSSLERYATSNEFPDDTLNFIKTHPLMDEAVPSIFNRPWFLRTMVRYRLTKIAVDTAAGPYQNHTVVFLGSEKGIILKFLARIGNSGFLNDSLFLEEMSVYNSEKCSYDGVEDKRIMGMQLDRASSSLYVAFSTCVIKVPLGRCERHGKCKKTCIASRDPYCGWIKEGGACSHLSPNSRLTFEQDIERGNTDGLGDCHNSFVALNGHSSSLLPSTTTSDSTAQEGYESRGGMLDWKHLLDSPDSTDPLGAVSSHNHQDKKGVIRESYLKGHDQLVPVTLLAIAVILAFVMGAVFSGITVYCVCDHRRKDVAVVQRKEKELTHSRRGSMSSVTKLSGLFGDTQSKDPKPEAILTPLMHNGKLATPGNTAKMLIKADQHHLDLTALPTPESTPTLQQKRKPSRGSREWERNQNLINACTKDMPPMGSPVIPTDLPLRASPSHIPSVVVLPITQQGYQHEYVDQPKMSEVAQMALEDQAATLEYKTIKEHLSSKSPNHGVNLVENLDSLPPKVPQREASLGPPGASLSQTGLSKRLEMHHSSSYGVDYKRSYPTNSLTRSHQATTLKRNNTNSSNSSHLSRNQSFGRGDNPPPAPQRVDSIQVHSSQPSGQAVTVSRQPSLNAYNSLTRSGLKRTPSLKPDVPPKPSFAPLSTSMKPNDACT
B4: Speckle-type POZ protein (Homo sapiens), O43791 (parent)
chain: B1 chain
partner: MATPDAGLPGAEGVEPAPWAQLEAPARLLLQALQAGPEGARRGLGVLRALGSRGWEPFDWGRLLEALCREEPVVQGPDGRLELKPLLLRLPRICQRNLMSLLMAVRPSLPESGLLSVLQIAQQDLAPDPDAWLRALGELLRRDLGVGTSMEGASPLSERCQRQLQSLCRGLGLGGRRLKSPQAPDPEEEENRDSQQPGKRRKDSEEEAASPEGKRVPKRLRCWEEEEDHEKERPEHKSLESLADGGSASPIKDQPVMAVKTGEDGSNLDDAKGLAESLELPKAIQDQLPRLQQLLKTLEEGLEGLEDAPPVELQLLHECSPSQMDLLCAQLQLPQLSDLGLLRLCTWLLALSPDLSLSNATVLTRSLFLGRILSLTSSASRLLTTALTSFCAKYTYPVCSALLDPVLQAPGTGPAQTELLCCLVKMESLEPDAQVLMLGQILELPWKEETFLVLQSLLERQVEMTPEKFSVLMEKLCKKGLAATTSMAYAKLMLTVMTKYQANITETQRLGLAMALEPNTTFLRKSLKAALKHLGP
B5: Speckle-type POZ protein (Homo sapiens), O43791 (parent)
chain: B1 chain
partner: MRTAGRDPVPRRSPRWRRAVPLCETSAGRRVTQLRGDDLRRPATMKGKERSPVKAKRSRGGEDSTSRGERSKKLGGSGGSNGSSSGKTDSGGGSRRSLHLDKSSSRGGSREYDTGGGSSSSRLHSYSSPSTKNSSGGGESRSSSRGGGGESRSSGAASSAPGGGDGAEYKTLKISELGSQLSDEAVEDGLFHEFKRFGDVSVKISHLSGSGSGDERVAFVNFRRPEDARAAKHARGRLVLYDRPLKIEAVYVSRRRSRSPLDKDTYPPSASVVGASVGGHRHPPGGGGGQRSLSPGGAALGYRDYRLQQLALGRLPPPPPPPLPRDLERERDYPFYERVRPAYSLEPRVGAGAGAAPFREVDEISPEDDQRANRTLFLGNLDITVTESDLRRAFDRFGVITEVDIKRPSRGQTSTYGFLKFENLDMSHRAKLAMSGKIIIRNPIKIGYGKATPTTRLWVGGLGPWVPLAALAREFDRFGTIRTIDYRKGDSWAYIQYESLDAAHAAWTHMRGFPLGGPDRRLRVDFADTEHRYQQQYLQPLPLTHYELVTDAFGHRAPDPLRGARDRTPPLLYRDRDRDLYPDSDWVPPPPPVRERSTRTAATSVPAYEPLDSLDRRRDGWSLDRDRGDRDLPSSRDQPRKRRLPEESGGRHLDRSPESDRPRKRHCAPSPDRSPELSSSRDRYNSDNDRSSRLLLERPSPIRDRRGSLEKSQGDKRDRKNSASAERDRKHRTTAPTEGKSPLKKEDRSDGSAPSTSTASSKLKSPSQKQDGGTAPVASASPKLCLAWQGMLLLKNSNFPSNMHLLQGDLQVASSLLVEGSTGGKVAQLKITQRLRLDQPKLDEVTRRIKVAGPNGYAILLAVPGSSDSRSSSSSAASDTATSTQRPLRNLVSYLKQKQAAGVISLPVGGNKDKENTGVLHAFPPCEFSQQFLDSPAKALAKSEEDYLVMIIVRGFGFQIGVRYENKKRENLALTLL
B6: Speckle-type POZ protein (Homo sapiens), O43791 (parent)
chain: B1 chain
partner: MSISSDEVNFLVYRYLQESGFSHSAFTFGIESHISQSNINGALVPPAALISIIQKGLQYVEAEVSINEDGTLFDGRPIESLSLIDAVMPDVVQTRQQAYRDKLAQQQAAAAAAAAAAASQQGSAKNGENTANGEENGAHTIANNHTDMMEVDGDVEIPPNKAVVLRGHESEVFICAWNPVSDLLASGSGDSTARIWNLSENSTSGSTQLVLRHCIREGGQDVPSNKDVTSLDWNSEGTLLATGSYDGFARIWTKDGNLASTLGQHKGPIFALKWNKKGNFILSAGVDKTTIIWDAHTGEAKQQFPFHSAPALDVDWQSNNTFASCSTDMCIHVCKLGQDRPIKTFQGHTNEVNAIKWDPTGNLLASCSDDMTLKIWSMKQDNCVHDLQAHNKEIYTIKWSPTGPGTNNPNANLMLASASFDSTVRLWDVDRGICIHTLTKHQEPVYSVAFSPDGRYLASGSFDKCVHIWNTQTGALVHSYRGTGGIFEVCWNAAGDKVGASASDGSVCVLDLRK
B7: Speckle-type POZ protein (Homo sapiens), O43791 (parent)
chain: B1 chain
partner: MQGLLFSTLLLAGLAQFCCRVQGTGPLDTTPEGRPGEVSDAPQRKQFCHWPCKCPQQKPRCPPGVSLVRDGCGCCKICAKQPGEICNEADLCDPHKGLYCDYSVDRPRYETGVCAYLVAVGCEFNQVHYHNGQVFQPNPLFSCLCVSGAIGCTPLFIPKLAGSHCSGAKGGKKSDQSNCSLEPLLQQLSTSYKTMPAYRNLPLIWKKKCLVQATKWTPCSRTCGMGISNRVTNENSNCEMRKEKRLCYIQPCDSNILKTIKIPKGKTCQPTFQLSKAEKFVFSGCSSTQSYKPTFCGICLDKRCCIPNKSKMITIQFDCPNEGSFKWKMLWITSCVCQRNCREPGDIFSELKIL

Variants of: B1
Conditions: with dlp1_human PDSS2, Q86YH6

Row | Variant | effect of a mutation on the interaction
1 | F133L | with no effect

Variants of: B1
Conditions: with dlp1_human PDSS2, Q86YH6
Remark: another data set of the same source

Row | Variant | effect of a mutation on the interaction
2 | Y87C | with no effect

Variants of: B2
Conditions: with elf3_human ELF3, P78545

Row | Variant | effect of a mutation on the interaction
3 | Y87C | with no effect

Variants of: B3
Conditions: with sem6a_human SEMA6A

Row | Variant | effect of a mutation on the interaction
4 | Y87C | with no effect

Variants of: B3
Conditions: with sem6a_human SEMA6A
Remark: another data set of the same source

Row | Variant | effect of a mutation on the interaction
5 | F102C | with no effect

Variants of: B3
Conditions: with sem6a_human SEMA6A
Remark: another data set of the same source

Row | Variant | effect of a mutation on the interaction
6 | F133V | with no effect

Variants of: B3
Conditions: with sem6a_human SEMA6A
Remark: another data set of the same source

Row | Variant | effect of a mutation on the interaction
7 | F133L | with no effect

Variants of: B4
Conditions: with fance_human FANCE

Row | Variant | effect of a mutation on the interaction
8 | Y87C | with no effect

Variants of: B5
Conditions: with rbm15_human RBM15, Q96T37

Row | Variant | effect of a mutation on the interaction
9 | F133L | with no effect

Variants of: B5
Conditions: with rbm15_human RBM15, Q96T37
Remark: another data set of the same source

Row | Variant | effect of a mutation on the interaction
10 | F133V | with no effect

Variants of: B6
Conditions: with tbl1r_human TBL1XR1, Q9BZK7

Row | Variant | effect of a mutation on the interaction
11 | F133L | with no effect

Variants of: B6
Conditions: with tbl1r_human TBL1XR1, Q9BZK7
Remark: another data set of the same source

Row | Variant | effect of a mutation on the interaction
12 | F133V | with no effect

Variants of: B6
Conditions: with tbl1r_human TBL1XR1, Q9BZK7
Remark: another data set of the same source

Row | Variant | effect of a mutation on the interaction
13 | F102C | with no effect

Variants of: B6
Conditions: with tbl1r_human TBL1XR1, Q9BZK7
Remark: another data set of the same source

Row | Variant | effect of a mutation on the interaction
14 | Y87C | with no effect

Variants of: B7
Conditions: with ccn6_human CCN6, O95389

Row | Variant | effect of a mutation on the interaction
15 | F133L | with no effect
